# Results as given in the nanobody polyreactivity screen of Harvey et al. (2022).
# Test: yeast display, Sf9 membrane polyspecificity reagent, FACS + sequencing; frameworks hold sequencing errors
# Method in brief: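 Synthetic nanobody libraries on Saccharomyces cerevisiae BJ5465 were galactose-induced for 36–48 hours, stained 1 hour at 4 °C with 10% biotinylated, detergent-solubilized Sf9 membrane reagent and enriched on streptavidin microbeads. FACS then separated cells into low and high (top ~1%) gates by anti-HA (expression) and streptavidin (reagent binding) fluorescence. Genes were colony-PCR amplified, MiSeq 2 × 250 sequenced and CDR-length filtered. A clone's polyreactivity label is that of its gate of origin.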
row,Sequence,polyreactivity (PSR sort gate)
1,QVQLVESGGGLVQAGGSHRLSCAASGSTFTYNAMGWYRQAPGKERELVASISSGTTTYYADSVKGRFTISRDNAKNTVYLQMNSLIPEDTAVYDCAVDSWSRVQGWLAHNYDYWGQGTQVTVSS,low polyreactivity
2,QVQLVESGGGLVQAGCSLRLIFAASGSIFIGYAMGWYRQAPGKERELVATITNGGSTYYADSVKGRFTISRDNAKNTVYLQMNSLKPEDSAVYYCNKPTYQWGQGTQVTVSS,high polyreactivity
3,QVQLVESGGGLVQAGGSLRLSCAASGFIFPYYAMGWYRQAPGQERELVAAITGGGSRTYYADSVKGRFTISRDNAKNTVYLQMNSLKPEDTAVYYCAKGLSTGRAYRGYDYWGQGTQVTVSS,high polyreactivity
4,QVHLVESGGGLVQAGGSLRLRSAASGRTFGWNVMGWYRQAPGKERELVAAISGSGGSTYYADSVKGRFTISRDNAKNTVYLQMNSLKPEDTAVYYCDALYGPGREYDYWGQGTQVTVSS,low polyreactivity
5,QVQLVESGGGLVQAGGSLRLSCAASGRIFVGYAMGWYRQAPGKERELVAAINRSGSSTYYADSVKGRFTISRDNAKNTVYLQMNSLKPEDTAVYYCNARSANRYGPRYDYWGQGTQVTVSS,high polyreactivity
6,QVQLVESGGGLVQAGGSLRLSCAASGYTFAWYAMGWYRQAPGKERELVAAINNGGSTSYADSVKGRFTISRDNAKNTVYLQMNSLKPEDTAVYYCNADHYGGPHWMDYWGQGTQVTVSS,low polyreactivity
7,QVQLVESGGGLVQAGGSLRLSCAASGSIFAYYVMGWYRQAPGKERELVAAISRSGGRTYYADSVKGRFTISRDNAKNTVYLQMNSLKPEETAVYYCNSELYSRPPGAQDPRLRFDYWGQGTQVTVSS,high polyreactivity
8,QVQLVESGGGLVQAGGSLRLSCAASGSIFYGNAMGWYRPAPGKERELVARISWSGSNTRYADSVKGRFTISRDNAKNTVYLQMNSLKPEDTAVYYCNARGFPGKFGYWGQGTQVTVSS,high polyreactivity
9,QVQLVESGGGLVQAGGSLRLSCAASGSIIGYYAMGWYRQAPGKDRELVAAISWSDGSTYYAVSVKGRFTISRDNAKNTVFLQMNSLKPEVTAVYYCAARFTPYITSDDGHYDYWGQGTQVTVSA,low polyreactivity
10,QVQLVESAGGLVQAGVSLRLSCAASGFTFSPNAMGWYRQPPGKERELVAAIDWSGDRTYYADSVKGRFTISRDNAKNTVYLQMNSLKPEDTAVYYCAKTNFSQSSRYNYDYWGQGTQVTVSS,low polyreactivity
11,QGQLVESGGGLVQAGGSLRLSCAASGLTFKYYTMGWYRQAPGKEMELVAAINWSGASTYADSVKGRFTISRDNAKNTVYLQMNSLKPEDTAVYYCAADSPSWAPVREYDFWGQGTQVTVSS,low polyreactivity
12,QVQLVESGGGLVQARGSLRLSCAASGSIFYGNAMGWYRQAHGKERELVAAISQSGGSTYYADSVKGRFTISRDNAKNTVYLQMNSLKPEDTAVYYCAAYTPYATWRYDYWGQGTQVTVSS,low polyreactivity
13,QVQLVESGGGLVQAGGSLRLSCAASGRTFGRYAMGWYRQATGKERELVAAISTGGRTYYADSVKGRFTISRDNAKNTVYLQMNSLKPEDTEVYYCNRVVVVGILEMGYWGQGTQVTVSS,low polyreactivity
14,QDELVESGGGLVQAGGSLRLSCAASGRIFPFYAMGWNRQAPGKERDFVAAITYSGGNTNYADSVKGRFTISRDNAKNTVYLQMNSLKPEDTAVYYCAAVLGYGDYYQEDYWGQGTQVTVSS,low polyreactivity
15,QVQLVESGGGLVQAGGSLRLSCAASGRILVDYAMGWYRQAPGKERELVAAITSTGGTTYYADSVKGRFTISRDNAKNTVYLQMNSLKPEDTAVYYCAAKRQDSWGGTYGYWGQGTQVTVSS,low polyreactivity
16,QVQLVESGGGLVQAGGSLRLSCAAYGFISPSYAMGWYRQAPGKERELVAAIRSSDGSTYYADSVKGRFTISRDNAKNTVYLQMNSLKPEDTAVYYCAARRVTSPFGSDSWGQGTQVTVSS,low polyreactivity
17,QVQLVESGGGLVQAGGSLRLSCASSGLTFAAYAMGWSRQAPGKERELVAAISRRGGSTYYADSVKGRFTISRDNAKNTVYLQMNSLKPEDTAVYYCAAENEVYWYDVEYWGQGTQVTVSS,high polyreactivity
18,QVQLVESGGGLVQAGGSLRLSCAASGSTFDHYTMGWYRQAPGKERELVAAINRIGDSTYYADSVKGRCTISRDNAKNTVYLQMTSLKPEDTAVYYCNTVSLSLRFDYWGQGTQVTVSS,high polyreactivity
19,QVQHVESGGGLLQAGGSLRLSCAASGITFFEYAMGWYRQAPGKERELVAVITSVGSTNYADSVKGRFTISRDNAKNTVYLQMNSLKPVDTAVYYCNARLVKYRWWYDYYYWGQGTQVTVSS,low polyreactivity
20,QVQLVESGGGLVQAGGSLRLSCAATGSNLIYVMGGYRQAPGKERELVASITFSGGSTYYADSVKGRFTISRDNAKNTVYLQMNRLKPEDTAVYYCAAVPLWDYKFFYYMLYDYWGQGTQVTVSS,low polyreactivity
21,QVQLVDSGGGLVQAGGSLRLSCAASGIIFSVYAMGWYRQAPGKERELVAAITYSGGSTYYADSVKGRFTISRDNAKNTVYLQMNSLKPEDTAVYYCNAYRYNALPWRYVGYDYWGQGTQVTVSS,low polyreactivity
22,QFQLVESGGGLVQAGGSLRLICDASGSIFYPYTIGWYRQAPWKERQLVAAITWDGGNTYYADSVKGRFTISRDNAKNTVYLQMNSLKREDTAVYYCAAVTSGWGTYRMYYWGQGTQETVSS,high polyreactivity

row,Sequence,polyreactivity (PSR sort gate)
1,QVQLVESGGGLVQAGGSLRLSCAASGRTFIFYAMGWYRPAPGNVRELVAAITLRGGGTDYADSVKGRFTISRDNAKNTVYLQMTSQQPEETAVYYCNADGYPVPRRFDPYSYLSDYWGQGTQVTVSS,low polyreactivity
2,QVQLVDSGGGLVQAGGSLRLSCAASGFIFKYYAMGWYRQEPGKERELVAAITIGGSTNYADSVKGRFTISRDNAKNTVYLQMNSLTPEDTAVYSCAADVQERYHRAWYDYWGQGTQVTVSS,low polyreactivity
3,QVQLVESGRGLVQAGGSLRLSCAASGRIIGYYTMGWYRQAPGKERELVAAITRDGGSTYYADSVKGRFTISRDNAKNTVYLQMNSLKPEDTAVYYCTAASQSRYFYWGQGTQVTVSS,high polyreactivity
4,QVQLVESGGGLVQAGGSLRLSCAASGSILLTNAMGWYRQAPGKERELVAAITSSGGSTSYADSVKGRFTISRDNAKNTVYIQMNSLKPEDTAVYYCAAAQRYRSQQFDHWGQGTQVTVSS,low polyreactivity
5,QVQLQESGGGLVQAGCSLRLSCAASGTISVHASMGWYRQAPGKERELVAGITDGANTYYADSVKGRFTISRDNSKNTVYLQMNSLKPEDTAVYYCAAYYGTEVHFTYWGQGTQVTVSS,low polyreactivity
6,QVQLVESGGGLVQAGGSLRLSCAASGSISSKNSMGWYRQAPGKEREFVAVISGTGGSTYYSDSVKGRFTISRDIAKNTVYLQMNSLKPEDTAVYYCAADFPWSTKSWHPDSGDSWGQGTQVTVSS,low polyreactivity
7,QVQLVESGGGLVQAGGSLRLSCAASGFIFVRYARGWNRQAPGKERELVASITRSGGSTYYADSVKGRFTISRDNAKNTVYLQMNSLKPEDTAVYYCAASYYRSRGSTYGYWGQGTQVTVSS,high polyreactivity
8,QVQLVESGGGLVQAGGSLRLSCAASGSTFYRYAMGWSRQAPGKERELVAAITWRGGSTYYADSVKGRFTISRDNAKNTLYLQMNSLKPEDTAVYYCAADSYYYRPYHYGYDYWGQGTQVTVSS,high polyreactivity
9,QVQLVESGGGLVQAGGSLRLSCAASGSIFGYYAMGCYRQAPGKERELDAAISASGGSTYYADSVKGRFTISRDNAKITVYFHMNSLKPEDTAVYYCAAVRSVTYIWARYPYGLEYCGQGTQVTVSS,high polyreactivity
10,QVQLVESGGGLVQAGGSLRLSCAASGSIFTPNVMGWYRQEPGKERELVAAISQRGGSTYYADSVKGRFTLSRDNAKNTVYLQMNSLKPEDTAVYYCNKDNAVDRLPWFQVTYDYWGQGTQVTVSS,low polyreactivity
11,QVQLVESGGGLVQAGGSLRLSCAASGSTFSYNAMGWYRQAPGKERELVAAITSTGRTYYADSVKGRFTISRDNAKNTVYLQMNSLKPEDTAVYYCNKRARSEQYSYKYGYYYWGQGTQVTVSS,high polyreactivity
12,QVQLVESAGGLVQAGGSLRLSCADSGRLFYLYARGWYRQAPGKERELVAAISSTGRTTYADSVKGRFTISRDNAKNTVYLQMNSLKPEDTAVYYGAADFRLSGSYGGFDYWGQGTQVTVSS,low polyreactivity
13,QVQLVESGGGLVQAGGSLRLSCAASGYTFRSYAMGWYRQAPGKERELVAGIDGSGGTTYYADSVKGRFTISRDNAKNTVYLQMNSLKPEDTAVYYCAAEAYKHGVWDYDYWGQGTQATVSS,low polyreactivity
14,QVQLLETVGGLVQAGGSLRLSCASSGFTFGYYTMGWYRQAPGKERELVAAISSSGGRTYYADSVKGRFTISRDIAKNTVYLQMISLKPEDTALYYCNVYYISTDLYYWGQGTQVTVSS,high polyreactivity
15,QVQIVESAAGLVQAGGSLRLSCAASGLTFTTYSKGWYRQAPGKERELVAAISRRGSRTYYADSVKGRFTISRDNSKNTVYLQMNSLKPEDTAVYYCNALTGSFKTYSFDYWGQGTQVTVSS,high polyreactivity
16,QVQLVESGGGLVQAGGSLRLSCAASGSIFSAYAMGWSRQAPGKERELVASITTDGGITYYADSVKGRFTISRDNAKNTVYLQMNSLKPEDTAVYYCAVLQYYYPYYYWGQGTQVTVSS,low polyreactivity
17,QVQLVESGGGLVQAGGSLRLSCAASGGTLGLNAMGWYRQAPGKEREFVAAINRSGGSTRYADSVKGRFTISRDNAKNTVYLQMNSLKPEDTAVYSCAAVGYWGPSGRHKSSKYEYWGQGTQVTVSS,high polyreactivity
18,QVQLVESGGGLVQAGGSLRLSCAPSGFTFGYYAMGWYRQAPGKERELVAAITYSGGSTYYADSVKGRFTISRDNAKNTVYLQMNSLKPEDTAVYYCNAYDRRYYYGRWYGEFDYWGLGTQVTVSS,low polyreactivity
19,QVQLVESGGGLVQAGGSLRLSCAASGSTFTPYAMGWYRQAPGKERELVAGITGNGGSTRYADSVKGRFTISRDNAKNTVYLQMNSLKTEDTAVYYCAARWTRERYRTSYYSWGQGTQVTVSS,high polyreactivity
20,QVQLVESGGGLVQAGGSLRLSCAASGSTFVGYAMGWYRQAPGKERELVADIDSIGGSTYYADSVKGRFTISRDNAKNTVYVQMNSLKPEDTAVYYCAARRFDTALVLYDYWGQGTQVTVSS,low polyreactivity
21,QVQLVESGGGLVQAGGSLRLSCAASGRTFDPYAMGWYRQAPGKERELVASISRGGSTYADSVKGRFTISRDNAKNTVFLQMNSLKPEDTAVYYCNTSLYTEGDAMDYWGQGTQVTVSS,low polyreactivity
